In experiment [1] the target is T1, biotinylated human NKG2C/CD94 heterodimer (extracellular domains, Fc fusions) (human, UniProt P26717 94-231; Q13241 32-179, biotinylated).
T1 construct: not shown: N-terminal Fc (hole)
The experiment in a line: BLI (Octet), summary of the examples. How it is done: The antibodies were evaluated for binding to (1) human NKG2A, (2) human NKG2C, and (3) cyno NKG2A. Bivalent interaction of binders to biotinylated human NKG2A (see Example 1), biotinylated human NKG2C/CD94 heterodimer, or biotinylated cyno NKG2A/CD94 heterodimer immobilized on a streptavidin biosensor was monitored using Octet (Pall ForteBio) instrument. For these assays, human NKG2C/CD94 and cyno NKG2A/CD94 were prepared using the procedure as described in Example 1. Similarly, the extracellular domain of human NKG2C was expressed and purified from HEK293 cells as heterodimer with CD94 as Fc fusions. The extracellular domain of NKG2C used for selection campaigns encompassed amino acid sequence Ile94-Leu231 (Accession No. P26717-1; SEQ ID NO: 75). The gene encoding CD94 (Accession No. Q13241-1, SEQ ID NO:76), Lys33-Ile159 was synthesized from IDT and cloned into mammalian expression vector as an N-terminal Fc (hole) fusion. Plasmids encoding NKG2C-Fc fusion and CD94-Fc fusion were co-transfected into HEK293T cells using standard procedures. NKG2C/CD94 heterodimer was purified from cell supernatant using Protein A resins. Similar approach was used to obtain Cynomolgus NKG2A protein. Specifically, extracellular domain of Cynomolgus NKG2A contained amino acid Pro 94-Leu 233. […]
For orientation: BLI is a label-free optical method that tracks binding on a fibre tip over time.

For experiment [2], the target named is T2, NKG2A expressed on KHYG-1 cells (endogenous) (human, UniProt P26715 1-233; Q13241 1-179).
T2 construct: whole, on cells; Surface NKG2A copy number of approximately 10-20K; also called KHYG-1 cells expressing endogenous NKG2A; NKG2A-expressing cells
T2 sequence (P26715 whole entry, chain 1 of 2): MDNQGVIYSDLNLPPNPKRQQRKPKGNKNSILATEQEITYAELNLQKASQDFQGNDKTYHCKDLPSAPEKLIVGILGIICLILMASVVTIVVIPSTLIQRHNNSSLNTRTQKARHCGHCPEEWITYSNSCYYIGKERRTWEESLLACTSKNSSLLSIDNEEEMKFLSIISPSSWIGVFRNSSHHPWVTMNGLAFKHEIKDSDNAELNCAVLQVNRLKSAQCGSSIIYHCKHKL
T2 sequence (Q13241 whole entry, chain 2 of 2): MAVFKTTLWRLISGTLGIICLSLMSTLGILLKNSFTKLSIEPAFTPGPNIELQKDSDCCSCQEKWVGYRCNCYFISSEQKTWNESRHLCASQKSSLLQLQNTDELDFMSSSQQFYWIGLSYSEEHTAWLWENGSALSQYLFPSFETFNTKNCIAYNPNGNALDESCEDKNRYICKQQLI
Briefly: flow cytometry on KHYG-1 cells expressing endogenous NKG2A. The procedure: Antibodies that were selected for binding to NKG2A, for example, such as those described in Examples 1 and 2, were evaluated for binding to cells that express NKG2A.
Cells were harvested at 70-90% confluence on the day of the assay. Cells were collected by centrifugation at 200×g for 5 minutes and media was removed. Cells were resuspended at 2×10⁶ cells per mL in cold PBS. […] 50 μL per well of the antibody dilution was plated in a 96 well V-bottom plate (Costar 3897). 50 μL per well of cell suspension was added. Plates were placed at 4° C. for 45-60 minutes.

Experiment [3] addresses T3, biotinylated cyno NKG2A/CD94 heterodimer (extracellular domains) (cynomolgus, UniProt Q9MZJ3 94-233; Q9MZK9 32-179, biotinylated).
T3 construct: also called Cynomolgus NKG2A protein; not shown: fusion partner/tags ('similar approach' to the human proteins); fusion partner ('similar approach')
The experiment in a line: BLI (Octet), bivalent. The procedure: A total of 58 binders formatted as IgG antibodies from phage display as described in Example 1 were further tested for binding.
The antibodies were evaluated for binding to (1) human NKG2A, (2) human NKG2C, and (3) cyno NKG2A. Bivalent interaction of binders to biotinylated human NKG2A (see Example 1), biotinylated human NKG2C/CD94 heterodimer, or biotinylated cyno NKG2A/CD94 heterodimer immobilized on a streptavidin biosensor was monitored using Octet (Pall ForteBio) instrument. For these assays, human NKG2C/CD94 and cyno NKG2A/CD94 were prepared using the procedure as described in Example 1. Similarly, the extracellular domain of human NKG2C was expressed and purified from HEK293 cells as heterodimer with CD94 as Fc fusions. The extracellular domain of NKG2C used for selection campaigns encompassed amino acid sequence Ile94-Leu231 (Accession No. P26717-1; SEQ ID NO: 75). The gene encoding CD94 (Accession No. Q13241-1, SEQ ID NO:76), Lys33-Ile159 was synthesized from IDT and cloned into mammalian expression vector as an N-terminal Fc (hole) fusion. Plasmids encoding NKG2C-Fc fusion and CD94-Fc fusion were co-transfected into HEK293T cells using standard procedures. NKG2C/CD94 heterodimer was purified from cell supernatant using Protein A resins. Similar approach was used to obtain Cynomolgus NKG2A protein. Specifically, extracellular domain of Cynomolgus NKG2A contained amino acid Pro 94-Leu 233. […] Extracellular domain of Cynomolgus CD94 contained amino acid residues Lys 33-Ile 179 (Accession No. Q68VD4-1; SEQ ID NO: 78).

T1 sequence (P26717 other isoform, or with tags, fused parts or gaps, chain 1 of 2): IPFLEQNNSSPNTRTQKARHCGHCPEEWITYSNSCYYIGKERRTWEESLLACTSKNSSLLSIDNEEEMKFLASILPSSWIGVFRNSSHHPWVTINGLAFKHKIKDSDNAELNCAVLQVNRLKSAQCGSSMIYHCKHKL
T1 sequence (Q13241 32-179, chain 2 of 2): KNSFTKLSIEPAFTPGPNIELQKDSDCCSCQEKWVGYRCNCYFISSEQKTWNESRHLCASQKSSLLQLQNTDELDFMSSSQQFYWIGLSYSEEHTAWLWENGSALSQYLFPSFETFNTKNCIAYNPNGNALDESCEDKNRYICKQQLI
T3 sequence (Q9MZJ3 other isoform, or with tags, fused parts or gaps, chain 1 of 2): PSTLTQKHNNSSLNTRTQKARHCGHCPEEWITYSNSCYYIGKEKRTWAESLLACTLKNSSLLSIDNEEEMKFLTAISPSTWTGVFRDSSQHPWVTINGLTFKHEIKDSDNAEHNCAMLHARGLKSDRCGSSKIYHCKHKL
T3 sequence (Q9MZK9 32-179, chain 2 of 2): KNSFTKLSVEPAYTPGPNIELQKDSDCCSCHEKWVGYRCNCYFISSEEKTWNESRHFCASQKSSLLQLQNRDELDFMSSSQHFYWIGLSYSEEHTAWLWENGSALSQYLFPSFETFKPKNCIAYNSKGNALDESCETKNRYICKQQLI

B1: Antibody Clone A3 (antibody, human IgG1, kappa, V domains shown)
VH: EVQLVESGGGLVQPGGSLRLSCAASGFTFSSYYIHWVRQAPGKGLEWVASISPYDGYTDYADSVKGRFTISADTSKNTAYLQMNSLRAEDTAVYYCARSSDFSPWTSSGGMDYWGQGTLVTVSS
VL: DIQMTQSPSSLSASVGDRVTITCRASQSVSSAVAWYQQKPGKAPKLLIYSASSLYSGVPSRFSGSRSGTDFTLTISSLQPEDFATYYCQQYGSSLRTFGQGTKVEIKR
Take B1: the binding result in experiment [1] is given as “no binding”. In experiment [2], this molecule came in with an EC50 of 0.303 nM.

B2: Antibody Clone A2 (antibody, human IgG1, kappa, V domains shown)
VH: EVQLVESGGGLVQPGGSLRLSCAASGFTFSSYYIHWVRQAPGKGLEWVASYVPEDGYTDYADSVKGRFTISADTSKNTAYLQMNSLRAEDTAVYYCARSSDFIPWTSSGGMDYWGQGTLVTVSS
VL: DIQMTQSPSSLSASVGDRVTITCRASQSVSRAVAWYQQKPGKAPKLLIYSASSLHSGVPSRFSGSRSGTDFTLTISSLQPEDFATYYCQQYGSSARTFGQGTKVEIKR
B2: the binding result in experiment [1] and in experiment [3] was “no binding” each time. In experiment [2], this molecule came in with an EC50 of 37.5 nM.

The term EC50 denotes the concentration at which the effect is half-maximal. High values mean a less potent agent, low ones a more potent agent.

Source of the values: patent US20260226161A1 (EXELIXIS, published 2026).
